# B1: LINE1-full (parent)
# chain: UACGUAGGUGGUUUUCCCCUGAUAGUGCUAAGGGGGCCUGGAAGUUUGGACUGGGCAGAGCUCAACACAGCGUGGCAAAGUGGCUGUGGCUAGACUGCCUCUCUGGAUUCCUCGUCACUCAGCAGGGCAUCUCUGAGAGAAAUGCC
# Variants of: B1
# Assay: self-cleavage, relative activity (ratio to wild type); higher = more cleavage; in vitro, sequencing; the parent is a self-cleaving ribozyme
row,Variant,self-cleavage
1,UACGUAGGUGGUUUUCCCCUGAUAGUGCUAAGGGGGCCUGGAAGUUUGGACUGGGCAGAGCUCAACACUGCGUGGCAAAGUGGCUGUGGCUAGACCGCCUCUCUGGAUUCCUCGUCACUCAGCAGGGCAUCUCUGAGAGAAAUGCC [A69U U96C],0.03
2,UACGUAGGUGGUUUUCCCCUGAUAGUGCUAAGGGGGCCUGGAAGUUUGGACUGGGCAGAGCUCAACACUGCGUGGCAAAGUGGCUGUGGCUAGACUGCCUCUCUGGAUUCCUCGUCAUUCAGCAGGGCAUCUCUGAGAGAAAUGCC [A69U C118U],0.01
3,UACGUAGGUGGUUUUCCCCUGAUAGUGCUAAGGGGGCCUGGAAGUUUGGACUGGGCAGAGCUCAACACUGCGUGGCAAAGUGGCUGUGGCUAGACUGCCUCUCUGGAUUCCUCGUCACUCAGCAGGGCAUCUCUGAGAGAUAUGCC [A69U A141U],0.05
4,UACGUAGGUGGUUUUCCCCUGAUAGUGCUAAGGGGGCCUGGAAGUUUGGACUGGGCAGAGCUCAACACUGCGUGGCAAAUUGGCUGUGGCUAGACUGCCUCUCUGGAUUCCUCGUCACUCAGCAGGGCAUCUCUGAGAGAAAUGCC [A69U G80U],0.03
5,UACGUAGGUGGUUUUCCCCUGAUAGUGCUAAGGGGGCCUGGAAGUUUGGACUGGGCAGAGCUCAACACUGCGUGGCAAAAUGGCUGUGGCUAGACUGCCUCUCUGGAUUCCUCGUCACUCAGCAGGGCAUCUCUGAGAGAAAUGCC [A69U G80A],0.3
6,UACGUAGGUGGUUUUCCCCUGAUAGUGCUAAGGGGGCCUGGAAGUUUGGACUGGGCAGAGCUCAACACUGCGUGGCAAAGUGGCUGUGGCUAGACUGCCUCUCUGGAUUCCUCGUCACUCAGCAGGGCGUCUCUGAGAGAAAUGCC [A69U A129G],0.07
7,UACGUAGGUGGUUUUCCCCUGAUAGUGCUAAGGGGGCCUGGAAGUUUGGACUGGGCAGAGCUCAACACUGCGUGGCAAAGUGGCUGUGGCUAGACUGCCUCUCUGGAUUCCUCGUCACUCAGCAGGGCUUCUCUGAGAGAAAUGCC [A69U A129U],0.06
8,UACGUAGGUGGUUUUCCCCUGAUAGUGCUAAGGGGGCCUGGAAGUUUGGACUGGGCAGAGCUCAACACUGCGUGGCAAAGUGGCUGUGGCUAGACUGCCUCUCUGGAUUCCUCGUCGCUCAGCAGGGCAUCUCUGAGAGAAAUGCC [A69U A117G],0.08
9,UACGUAGGUGGUUUUCCCCUGAUAGUGCUAAGGGGGCCUGGAAGUUUGGACUGGGCAGAGCUCAACACUGCGUGGCAAAGUGGCUGUGGCUAGGCUGCCUCUCUGGAUUCCUCGUCACUCAGCAGGGCAUCUCUGAGAGAAAUGCC [A69U A94G],0.02
10,UACGUAGGUGGUUUUCCCCUGAUAGUGCUAAGGGGGCCUGGAAGUUUGGACUGGGCAGAGCUCAACACUGCGUGGCAAAGAGGCUGUGGCUAGACUGCCUCUCUGGAUUCCUCGUCACUCAGCAGGGCAUCUCUGAGAGAAAUGCC [A69U U81A],0.01
11,UACGUAGGUGGUUUUCCCCUGAUAGUGCUAAGGGGGCCUGGAAGUUUGGACUGGGCAGAGCUCAACACUGCGUGGCAAAGUGGCUGUGGCUAGACUGCCUCUCUGGAUUCCUCGUCACUCAGCUGGGCAUCUCUGAGAGAAAUGCC [A69U A124U],0.09
12,UACGUAGGUGGUUUUCCCCUGAUAGUGCUAAGGGGGCCUGGAAGUUUGGACUGGGCAGAGCUCAACACUGCGUGGCAAAGUGGCUGUGGCUAGACUGCCUCUCUGGAUUCCUCGUCACUCAGCGGGGCAUCUCUGAGAGAAAUGCC [A69U A124G],0.05
13,UACGUAGGUGGUUUUCCCCUGAUAGUGCUAAGGGGGCCUGGAAGUUUGGACUGGGCAGAGCUCAACACGGCGUGGCAAAGUGGCUGUGGCUAGACUGCCUCUCUGGACUCCUCGUCACUCAGCAGGGCAUCUCUGAGAGAAAUGCC [A69G U108C],0.68
14,UACGUAGGUGGUUUUCCCCUGAUAGUGCUAAGGGGGCCUGGAAGUUUGGACUGGGCAGAGCUCAACACUGCGUGGCAAAGUGGCUGUGGCUAGACUGCCUCUCUGGAUUCCUCGUCACUCAGCAGGGCAUCUCUGAGAGAAGUGCC [A69U A142G],0.06
15,UACGUAGGUGGUUUUCCCCUGAUAGUGCUAAGGGGGCCUGGAAGUUUGGACUGGGCAGAGCUCAACACUGUGUGGCAAAGUGGCUGUGGCUAGACUGCCUCUCUGGAUUCCUCGUCACUCAGCAGGGCAUCUCUGAGAGAAAUGCC [A69U C71U],0.02
16,UACGUAGGUGGUUUUCCCCUGAUAGUGCUAAGGGGGCCUGGAAGUUUGGACUGGGCAGAGCUCAACACGGCGUGGCAAAGUGGCUGUGGCUAGACUGCCACUCUGGAUUCCUCGUCACUCAGCAGGGCAUCUCUGAGAGAAAUGCC [A69G U100A],0.17
17,UACGUAGGUGGUUUUCCCCUGAUAGUGCUAAGGGGGCCUGGAAGUUUGGACUGGGCAGAGCUCAACACGGCGUGGCAAAGUGGCUGUGGCUAGACUGCCCCUCUGGAUUCCUCGUCACUCAGCAGGGCAUCUCUGAGAGAAAUGCC [A69G U100C],0.98
18,UACGUAGGUGGUUUUCCCCUGAUAGUGCUAAGGGGGCCUGGAAGUUUGGACUGGGCAGAGCUCAACACUGCGUGGCAAAGUGGCUGUGGCUAGACUGCCUCUCUGGAUUCCUCGUCACUCAGCAGGGCAUCUCUGAGAGGAAUGCC [A69U A140G],0.04
19,UACGUAGGUGGUUUUCCCCUGAUAGUGCUAAGGGGGCCUGGAAGUUUGGACUGGGCAGAGCUCAACACUGCGUGGCAAAGUGGCCGUGGCUAGACUGCCUCUCUGGAUUCCUCGUCACUCAGCAGGGCAUCUCUGAGAGAAAUGCC [A69U U85C],0
20,UACGUAGGUGGUUUUCCCCUGAUAGUGCUAAGGGGGCCUGGAAGUUUGGACUGGGCAGAGCUCAACACUGCGUGGCAAAGUGGCUGUGGCUGGACUGCCUCUCUGGAUUCCUCGUCACUCAGCAGGGCAUCUCUGAGAGAAAUGCC [A69U A92G],0.03

row,Variant,self-cleavage
1,UACGUAGGUGGUUUUCCCCUGAUAGUGCUAAGGGGGCCUGGAAGUUUGGACUGGGCAGAGCUCAACACUGCGUGGCUAAGUGGCUGUGGCUAGACUGCCUCUCUGGAUUCCUCGUCACUCAGCAGGGCAUCUCUGAGAGAAAUGCC [A69U A77U],0.06
2,UACGUAGGUGGUUUUCCCCUGAUAGUGCUAAGGGGGCCUGGAAGUUUGGACUGGGCAGAGCUCAACACUGCGUGGCGAAGUGGCUGUGGCUAGACUGCCUCUCUGGAUUCCUCGUCACUCAGCAGGGCAUCUCUGAGAGAAAUGCC [A69U A77G],0.07
3,UACGUAGGUGGUUUUCCCCUGAUAGUGCUAAGGGGGCCUGGAAGUUUGGACUGGGCAGAGCUCAACACGGCGUGGCAAAGUGGCUGUGGCUAGACUGCCUCUCUGGAUUCCUCGUCACACAGCAGGGCAUCUCUGAGAGAAAUGCC [A69G U119A],0.65
4,UACGUAGGUGGUUUUCCCCUGAUAGUGCUAAGGGGGCCUGGAAGUUUGGACUGGGCAGAGCUCAACACGGCGUGGCAAAGUGGCUGUGGCUAGACUGCCUCUCUGGAUUCCUCGUCACCCAGCAGGGCAUCUCUGAGAGAAAUGCC [A69G U119C],0.64
5,UACGUAGGUGGUUUUCCCCUGAUAGUGCUAAGGGGGCCUGGAAGUUUGGACUGGGCAGAGCUCAACACUGCGUGGCAAAGUGGCUGUGGCUAGAAUGCCUCUCUGGAUUCCUCGUCACUCAGCAGGGCAUCUCUGAGAGAAAUGCC [A69U C95A],0.02
6,UACGUAGGUGGUUUUCCCCUGAUAGUGCUAAGGGGGCCUGGAAGUUUGGACUGGGCAGAGCUCAACACGGCGUGGCAAAGUGGCUGUGGCUAGACUGCCUCUCUGGAUUCCUCGUCACUCAGCAGGGCAUCUCUGAGAGAAACGCC [A69G U143C],0.5
7,UACGUAGGUGGUUUUCCCCUGAUAGUGCUAAGGGGGCCUGGAAGUUUGGACUGGGCAGAGCUCAACACGGCGUGGCAAAGUGGCUGUGGCUAGACUGCCUCUCUGGAUUCCUCGUCACUCAGCAGGGCAUCUCUGAGAGAAAAGCC [A69G U143A],0.31
8,UACGUAGGUGGUUUUCCCCUGAUAGUGCUAAGGGGGCCUGGAAGUUUGGACUGGGCAGAGCUCAACACUGCGUGGCAAAGUGGCUGUGGCCAGACUGCCUCUCUGGAUUCCUCGUCACUCAGCAGGGCAUCUCUGAGAGAAAUGCC [A69U U91C],0.06
9,UACGUAGGUGGUUUUCCCCUGAUAGUGCUAAGGGGGCCUGGAAGUUUGGACUGGGCAGAGCUCAACACUGCGUGGCAAAGUGGCUGUGGCAAGACUGCCUCUCUGGAUUCCUCGUCACUCAGCAGGGCAUCUCUGAGAGAAAUGCC [A69U U91A],0.05
10,UACGUAGGUGGUUUUCCCCUGAUAGUGCUAAGGGGGCCUGGAAGUUUGGACUGGGCAGAGCUCAACACUGCGUGGCAAAGUGGCUGUGGCUAGACUGCCUCUCUGGAUUCCUCGUCACUCAGCAGGGCAUCUCUGAGGGAAAUGCC [A69U A138G],0.07
11,UACGUAGGUGGUUUUCCCCUGAUAGUGCUAAGGGGGCCUGGAAGUUUGGACUGGGCAGAGCUCAACACUGCGUGGCAAGGUGGCUGUGGCUAGACUGCCUCUCUGGAUUCCUCGUCACUCAGCAGGGCAUCUCUGAGAGAAAUGCC [A69U A79G],0.05
12,UACGUAGGUGGUUUUCCCCUGAUAGUGCUAAGGGGGCCUGGAAGUUUGGACUGGGCAGAGCUCAACACUGCGUGGCAAAGUGGCUGUGGCUAGACUGCCUCUCUGGGUUCCUCGUCACUCAGCAGGGCAUCUCUGAGAGAAAUGCC [A69U A107G],0.08
13,UACGUAGGUGGUUUUCCCCUGAUAGUGCUAAGGGGGCCUGGAAGUUUGGACUGGGCAGAGCUCAACACUGCGUGGCAAAGUGGCUGUGGCUAGACUGCCUCUCUGGUUUCCUCGUCACUCAGCAGGGCAUCUCUGAGAGAAAUGCC [A69U A107U],0.04
14,UACGUAGGUGGUUUUCCCCUGAUAGUGCUAAGGGGGCCUGGAAGUUUGGACUGGGCAGAGCUCAACACUGCGUGGCAAAGUGGCUGUGGCUAGACUCCCUCUCUGGAUUCCUCGUCACUCAGCAGGGCAUCUCUGAGAGAAAUGCC [A69U G97C],0
15,UACGUAGGUGGUUUUCCCCUGAUAGUGCUAAGGGGGCCUGGAAGUUUGGACUGGGCAGAGCUCAACACGGCGUGGCAAAGUGGCUGUGGCUAGACUGCCUCUCUGGAUCCCUCGUCACUCAGCAGGGCAUCUCUGAGAGAAAUGCC [A69G U109C],0.29
16,UACGUAGGUGGUUUUCCCCUGAUAGUGCUAAGGGGGCCUGGAAGUUUGGACUGGGCAGAGCUCAACACUGCGUGGCAAAGUGGCUGUAGCUAGACUGCCUCUCUGGAUUCCUCGUCACUCAGCAGGGCAUCUCUGAGAGAAAUGCC [A69U G88A],0.01
17,UACGUAGGUGGUUUUCCCCUGAUAGUGCUAAGGGGGCCUGGAAGUUUGGACUGGGCAGAGCUCAACACUGCGUGGCAAAGUGGCUGUGGCUAGACUGCCUCUCUGGAUUCCUCGUAACUCAGCAGGGCAUCUCUGAGAGAAAUGCC [A69U C116A],0.05
18,UACGUAGGUGGUUUUCCCCUGAUAGUGCUAAGGGGGCCUGGAAGUUUGGACUGGGCAGAGCUCAACACUGCGUGGCAAAGUGGCUGUGGCUAGACUGCCUCUCUGGAUUCCUCGUCACUCAGCAGAGCAUCUCUGAGAGAAAUGCC [A69U G126A],0.05
19,UACGUAGGUGGUUUUCCCCUGAUAGUGCUAAGGGGGCCUGGAAGUUUGGACUGGGCAGAGCUCAACACUGCGUGGCAAAGUAGCUGUGGCUAGACUGCCUCUCUGGAUUCCUCGUCACUCAGCAGGGCAUCUCUGAGAGAAAUGCC [A69U G82A],0.14
